Laboratory results from patent US20260258121A1, “USES OF POMC-SPECIFIC ANTIBODY AND MARCHF6” (KOREA UNIVERSITY RESEARCH AND BUSINESS FOUNDATION, priority 2023, published 2026).

B1: Marchf63f: wild-type C-terminal triple flag-tagged Marchf6 (membrane associated ring-CH-type finger 6), expressed from pCH879 (protein, UniProt Q6ZQ89 1-909, looked up)
E3 ubiquitin-protein ligase …: MDTAEEDICRVCRSEGTPEKPLYHPCVCTGSIKFIHQECLVQWLKHSRKEYCELCKHRFAFTPIYSPDMPSRLPIQDIFAGLVTSIGTAIRYWFHYTLVAFAWLGVVPLTACRIYKCLFTGSVSSLLTLPLDMLSTENLLADCLQGCFVVTCTLCAFISLVWLREQIVHGGAPIWLEHAAPPFNAAGHHQNEAPVGGNGAENPAADQPANPAGENAVLGENPDAQDGQAEEEEEDNEEEDDAGVEDAADANNGAQDDMNWNALEWDRAAEELTWERMLGLDGSLVFLEHVFWVVSLNTLFILVFAFCPYHIGHFSLVGLGFEEHVQASHFEGLITTIVGYILLAITLIICHALATLVKFHRSRRLLGVCYIVVKVSLLVVVEIGVFPLICGWWLDICSLEMFDATLKDRELSFQSAPGTTMFLHWLVGMVYVFYFASFILLLREVLRPGVLWFLRNLNDPDFNPVQEMIHLPIYRHLRRFILSVIVFGSIVLLMLWLPIRIIKSLLPNFLPYNVMLYSDAPVSELSLELLLLQVVLPALLEQGHTRQWLKGLVRAWTVTAGYLLDLHSYLLGDQEENENSANQQVNNNQPARNNNAVPAGEGLHAAHQAILQQGGPVGFQPYRRPLNFPLRIFLLIVFMCITLLIASLICLTLPVFAGRWLMSFWTGTAKIHELYTAACGLYVCWLTIRAVTVLVAWMPQGRRVIFQKVKEWSLMIMKTLIVAVLLAGVVPLLLGLLFELVIVAPLRVPLDQTPLFYPWQDWALGVLHAKIIAAITLMGPQWWLKTVIEQVYANGIRNIDLHYIIRKLAAPVISVLLLSLCVPYVIASGAVPLLGVTAEMQNLVHRRIYPFLLMVVVLMGILSFQVRQFKRLYEHIKNDKYLVGQRLVNYERKSGKQGPSTPPPVSSQE
modifications: C-terminal triple FLAG tag
notes: wild-type C-terminal triple flag-tagged Marchf6 (membrane associated ring-CH-type finger 6), expressed from pCH879

Assays:
[1] = system: 4-hydroxynonenal (4HNE); experiment: Immunoblotting of 4-HNE in POMCha-overexpressing N43/5 cells; type: cell-based, mouse; conditions: Fer-1 5 μM, 24 h
[2] = system: POMCha-overexpressing Marchf6-KO N43/5 cells; experiment: Cell viability (CellTiter-Glo) of POMCha-overexpressing Marchf6-KO N43/5 cells; type: cell-based, mouse
Procedure: To understand the functional or mechanistic association between Marchf6-mediated POMC degradation and ferroptosis, lipid ROS levels were compared in N43/5 cells overexpressing POMCha using a lipid peroxidation sensor C11-BODIPY^581/591. Specifically, WT or Marchf6-KO N43/5 cells were transfected with pCH4129 (POMCha) for 48 hours, and the medium was replaced with a culture medium containing 2 μM C11-BODIPY^581/591 (Thermo Fisher Scientific, D3861). The cells were incubated at 37° C. for 30 minutes, and the fluorescent probe-treated cells were trypsinized, transferred to a 15 ml Falcon tube, washed three times with 1 ml of ice-cold PBS, and then transferred to an ice-cold round-bottom polystyrene tube (Corning, 352235). The amount of intracellular lipid ROS in […] was measured using CytoFLEX LX (Beckman Coulter) using fluorescein isothiocyanate (FITC) and analyzed using FlowJo v10.8.1 (BD Bioscience). In addition, cell viability was analyzed using a CellTiter-Glo luminescent 3D cell viability assay kit (Promega, G9241) and a multimode plate reader (TECAN, Spark 10 M). At this time, when the inhibition of cell death was evaluated, WT or Marchf6-KO N43/5 cells expressing pCH60 (empty vector) or pCH4129 (POMCha) (final concentration of […] each) were treated with 5 μM Fer-1, 20 μM Z-VAD-FMK or 40 μM Nec-1, and incubated for 24 hours, and cell viability was analyzed. In addition, the intracellular NADP(H) level was measured using a NADP/NADPH-Glo assay kit (Promega, G9081) and a multimode plate reader (TECAN, Spark 10 M). Further, LDH activity was measured using the Cytotoxicity Detection Kit Plus (LDH) (Sigma, 4744926001).
Through Examples, since Marchf6 mediated the degradation of POMC, it was expected that loss of Marchf6 would make POMC neurons hypersensitive to POMC-induced ferroptosis. Therefore, pCH60 (empty vector), pCH879 (Marchf63f), pCH880 (Marchf6flag^C9A), or pCH4170 (Marchf6flag^P460A) was transfected into WT or Marchf6-KO N43/5 cells, and the degree of ferroptosis induction in POMC neurons was analyzed as in Example 6-1.

[3] = system: Gpx4, CHOP, Nox2, and Nox4; experiment: Immunoblotting of Gpx4, CHOP, Nox2 and Nox4 in POMCha-overexpressing Marchf6-KO N43/5 cells; type: cell-based, mouse
[4] = biological target: T1, POMC (Homo sapiens, UniProt P01189); experiment: Chemical crosslinking-based reciprocal co-immunoprecipitation assay in HEK293T cells; type: binding; conditions: DSP crosslinking
T1 construct: expressed in transfected cells; host or cells: HEK293T
T1 sequence (P01189 1-267): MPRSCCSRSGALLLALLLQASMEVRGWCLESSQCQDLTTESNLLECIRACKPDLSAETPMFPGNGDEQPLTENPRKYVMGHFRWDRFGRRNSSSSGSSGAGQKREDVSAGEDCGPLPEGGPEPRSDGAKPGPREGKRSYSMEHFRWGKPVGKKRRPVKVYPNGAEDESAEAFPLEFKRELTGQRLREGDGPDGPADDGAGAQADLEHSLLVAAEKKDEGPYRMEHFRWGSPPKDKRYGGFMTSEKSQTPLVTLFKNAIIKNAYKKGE
Procedure: For the chemical crosslinking-based reciprocal co-immunoprecipitation assay, HEK293T cells were incubated at […] in a 10-cm dish plate and co-transfected with […] of pCH60 (empty vector) or pCH4129 (exogenous C-terminally hemagglutinin (ha)-tagged POMC: POMCha) and pCH879 (wild-type C-terminal triple flag-tagged Marchf6: Marchf63f) or pCH4170 (Marchf6^P460A) and incubated for 48 hours. The cells were washed with PBS, treated with 1 mM DSP [dithiobis(succinimidyl propionate)] (Thermo Fisher, 22585), and then the crosslinked cells were lysed and immunoprecipitated. The beads were washed three times with an IP-wash buffer (20 mM Tris-HCl, 137 mM NaCl, 0.1% NP-40, 2 mM EDTA, 10% glycerol) and bound proteins were eluted with a 2× SDS sample buffer. For immunoprecipitation with FLAG-agarose (Sigma-Aldrich, A2220), a 3× FLAG peptide (Protein Ark, GEN-3XFLAG-5) was used. Thereafter, the eluate was denatured and heated at 37° C. for 20 minutes, and SDS-PAGE and immunoblotting were performed using the corresponding antibody.

[5] = biological target: T2, GST-POMC fragments (Homo sapiens, UniProt P01189); experiment: GST pull-down assay; type: binding; conditions: extract of HEK293T cells expressing Marchf63f
T2 construct: purified GST, GST-POMC^1-76, GST-POMC^27-76, or GST-POMC^1-26 was incubated with 50 μl of glutathione Sepharose beads; made in house; Marchf63f came from an extract of transfected HEK293T cells
T2 sequence (P01189 1-26): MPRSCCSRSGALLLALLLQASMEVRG
Procedure: (§1) To clarify a POMC domain binding to the C4 domain of Marchf6, a Y2H assay was performed using a set of POMC fragments in which the C4 of Marchf6 and the C-terminus (Ct-) of POMC were cleaved. To this end, pCH4540 (C4), pCH4132 (POMC), or cleaved forms thereof pCH4235 (POMC^1-76), pCH4236 (POMC^1-87), pCH4237 (POMC^1-102), pCH4238 (POMC^1-137), and pCH4239 (POMC^1-176) were co-transformed into CHY726 and spotted on a SC(-Leu/-Trp) or SC(-Leu/-Trp/-His) plate and analyzed as in Example above. In addition, for interaction analysis between full-length Marchf6 and POMC, a split-Ub assay was performed by transforming S. cerevisiae CHY712 with pCH836 (Marchf6) or pCH4311 (Marchf6^P460A) as bait and pCH4203 (POMC^1-267), pCH4204 (POMC^77-267), or pCH4313 (POMC^1-76) as prey. In addition, for glutathione-S-transferase (GST) pull-down assay, […] of purified GST, GST-POMC^1-76, GST-POMC^27-76, or GST-POMC^1-26 was incubated with 50 μl of glutathione Sepharose beads (Cytiva, 17-0756-05) at 4° C. for 2 hours.
(§2) HEK293T cells transfected with pCH879 (Marchf63f) were lysed with a lysis buffer (50 mM Tris-HCl, 150 mM NaCl, 1 mM EDTA, 1% NP-40, pH 7.6) containing 1× protease inhibitor cocktail to obtain an extract, and the extract and the beads were further incubated at 4° C. for 2 hours, and then washed three times with 0.5 ml of GST-wash buffer (20 mM Tris-HCl, 137 mM NaCl, 2 mM EDTA, 0.5% NP-40, 10% glycerol, pH 7.6). Proteins binding to the beads were eluted with a 2× SDS-sample buffer, heated at 37° C. for 20 minutes, subjected to SDS-PAGE, Coomassie blue staining, and immunoblotting using anti-flag antibody.

[6] = biological target: T3, GST-POMC fragments (Homo sapiens, UniProt P01189); experiment: GST pull-down assay; type: binding; conditions: extract of HEK293T cells expressing Marchf63f; remark: listed apart in the source
T3 construct: purified GST, GST-POMC^1-76, GST-POMC^27-76, or GST-POMC^1-26 was incubated with 50 μl of glutathione Sepharose beads; made in house; Marchf63f came from an extract of transfected HEK293T cells
T3 sequence (P01189 1-76): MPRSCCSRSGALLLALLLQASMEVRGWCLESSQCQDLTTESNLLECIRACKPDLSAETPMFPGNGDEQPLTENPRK
Procedure: as §1, §2

[7] = biological target: T4, GST-POMC fragments (Homo sapiens, UniProt P01189); experiment: GST pull-down assay; type: binding; conditions: extract of HEK293T cells expressing Marchf63f; remark: listed apart in the source
T4 construct: purified GST, GST-POMC^1-76, GST-POMC^27-76, or GST-POMC^1-26 was incubated with 50 μl of glutathione Sepharose beads; made in house; Marchf63f came from an extract of transfected HEK293T cells
T4 sequence (P01189 27-76): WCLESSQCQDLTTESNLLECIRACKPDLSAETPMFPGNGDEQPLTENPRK
Procedure: as §1, §2

Molecule	level of 4-hydroxynonenal (4HNE) increased by overexpression of POMCha, effect of treatment [1]	decreased viability of POMCha-overexpressing Marchf6-KO N43/5 cells, effect of treatment ([2]; 5 μM Fer-1, 24 hours)	reduced viability of POMCha-overexpressing Marchf6-deficient N43/5 cells, effect of ectopic expression ([2]; ectopic expression by transfection)	expression levels of Gpx4, CHOP, Nox2, and Nox4 proteins, effect of expression of construct [3]	binding of full-length POMC (co-immunoprecipitation) [4]	binding to GST-POMC^1-26 [5]	binding to GST-POMC^1-76 [6]	binding to GST-POMC^27-76 [7]
CCOC(=O)c1ccc(NC2CCCCC2)c(N)c1 [Fer-1, ferrostatin-1, reference compound]	restored	restored						
B1			restored	restored	specifically bound	hardly bound	directly bound	very weakly bound
